Source: article PMC4967961

Target: HuR full-length (FL-HuR, rHuR) (UniProt Q15717 1-326)
Assay: EMSA; EMSA: 20 mM Tris-HCl pH 7.8, 150 mM KCl, 2 mM MgCl2, 0.1% Triton X-100, 0.5 mM DTT, heparin 5 mg/ml, BSA 1 mg/ml, 10% glycerol, on ice 15 min; 6% native PAGE, 0

Chain of HuR full-length (FL-HuR, rHuR) (Q15717 whole entry): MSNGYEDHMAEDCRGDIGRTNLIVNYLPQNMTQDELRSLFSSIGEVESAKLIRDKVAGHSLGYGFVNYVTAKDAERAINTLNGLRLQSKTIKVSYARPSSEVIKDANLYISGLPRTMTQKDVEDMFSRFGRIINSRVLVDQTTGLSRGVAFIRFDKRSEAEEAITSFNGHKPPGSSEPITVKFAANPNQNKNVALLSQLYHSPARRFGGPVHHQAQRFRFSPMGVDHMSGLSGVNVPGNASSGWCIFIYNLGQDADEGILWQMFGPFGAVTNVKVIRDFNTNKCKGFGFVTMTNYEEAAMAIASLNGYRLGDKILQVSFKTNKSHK

| Binder | binding result | Kd [nM] |
| --- | --- | --- |
| AUUAUUUAUUAUUUAUUUAUUAUUUAUUUAUUUA (ssRNA) [TNF-alpha 3'UTR ARE RNA] | binds |  |
| UGGAGUGUGACAAUGGUGUUUG (ssRNA) [miR-122 (5p)] |  | 50 |
